In the supplement of paper PMC10567573:

B1: MYOZ1 (parent)
chain: FSDSSMDHFQKFLPTVGGQLGTAG

Variants of: B1
Experiment: protein stability index of a GFP-peptide fusion (GPS, HEK-293T) (PSI 1-6); higher = more stable
Conditions: c terminus: a fixed tail appended
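Also: lentivirally expressed fusions sorted by FACS into six bins by GFP to DsRed ratio, PSI derived from sequencing read proportions per bin multiplied by bin number.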

Variant	protein stability index
FSDSSMDHFQKFLPTVGGQLGQAG [T22Q]	2.36
FSDSSMDHFQKFLPTVGGQLGPAG [T22P]	2.15
FSDSSMDHFQKFLPTVGGQLGDAG [T22D]	2.86
FSDSSMDHFQKFLPTVGGQLGEAG [T22E]	3.05
FSDSSMDHFQKFLPTVGGQLGWAG [T22W]	1.43
FSDSSMDHFQKFLPTVGGQLGYAG [T22Y]	2.05
FSDSSMDHFQKFLPTVGGQLGKAG [T22K]	3.06
FSDSSMDHFQKFLPTVGGQLGHAG [T22H]	1.86
FSDSSMDHFQKFLPTVGGQLGGAG [T22G]	2.09
FSDSSMDHFQKFLPTVGGQLGLAG [T22L]	3.17
FSDSSMDHFQKFLPTVGGQLGIAG [T22I]	2.57
FSDSSMDHFQKFLPTVGGQLGRAG [T22R]	2.16
FSDSSMDHFQKFLPTVGGQLGSAG [T22S]	2.19
FSDSSMDHFQKFLPTVGGQLGNAG [T22N]	2.54
FSDSSMDHFQKFLPTVGGQLGMAG [T22M]	2.14
FSDSSMDHFQKFLPTVGGQLGCAG [T22C]	1.81
FSDSSMDHFQKFLPTVGGQLGFAG [T22F]	1.82
FSDSSMDHFQKFLPTVGGQLGAAG [T22A]	2.29
FSDSSMDHFQKFLPTVDGQLGTAG [G17D]	2.33
FSDSSMDHFQKFLPTVTGQLGTAG [G17T]	2.56
FSDSSMDHFQKFLPTVNGQLGTAG [G17N]	2.98
FSDSSMDHFQKFLPTVMGQLGTAG [G17M]	2.06
FSDSSMDHFQKFLPTVIGQLGTAG [G17I]	2.47
FSDSSMDHFQKFLPTVQGQLGTAG [G17Q]	2.53

Variant	protein stability index
FSDSSMDHFQKFLPTVEGQLGTAG [G17E]	2.98
FSDSSMDHFQKFLPTVYGQLGTAG [G17Y]	2.26
FSDSSMDHFQKFLPTVRGQLGTAG [G17R]	1.92
FSDSSMDHFQKFLPTVWGQLGTAG [G17W]	2.03
FSDSSMDHFQKFLPTVLGQLGTAG [G17L]	1.56
FSDSSMDHFQKFLPTVKGQLGTAG [G17K]	2.02
FSDSSMDHFQKFLPTVFGQLGTAG [G17F]	1.85
FSDSSMDHFQKFLPTVSGQLGTAG [G17S]	2.26
FSDSSMDHFQKFLPTVVGQLGTAG [G17V]	2.38
FSDSSMDHFQKFLPTVCGQLGTAG [G17C]	1.97
FSDSSMDHFQKFLPTVAGQLGTAG [G17A]	2.48
FSDSSMDHFQKFLPTVPGQLGTAG [G17P]	2.59
FSDSSMDHFQKFLPTVHGQLGTAG [G17H]	2.47
FSDSSMDHFQKFLPTVGGQLGTAD [G24D]	3.09
FSDSSMDHFQKFLPTVGGQLGTAN [G24N]	2.03
FSDSSMDHFQKFLPTVGGQLGTAH [G24H]	2.33
FSDSSMDHFQKFLPTVGGQLGTAQ [G24Q]	1.98
FSDSSMDHFQKFLPTVGGQLGTAC [G24C]	1.95
FSDSSMDHFQKFLPTVGGQLGTAE [G24E]	2.54
FSDSSMDHFQKFLPTVGGQLGTAP [G24P]	2.25
FSDSSMDHFQKFLPTVGGQLGTAL [G24L]	2.36
FSDSSMDHFQKFLPTVGGQLGTAA [G24A]	1.71
FSDSSMDHFQKFLPTVGGQLGTAM [G24M]	1.92
FSDSSMDHFQKFLPTVGGQLGTAK [G24K]	2.16

Variant	protein stability index
FSDSSMDHFQKFLPTVGGQLGTAI [G24I]	1.54
FSDSSMDHFQKFLPTVGTQLGTAG [G18T]	2.55
FSDSSMDHFQKFLPTVGCQLGTAG [G18C]	2.04
FSDSSMDHFQKFLPTVGSQLGTAG [G18S]	2.48
FSDSSMDHFQKFLPTVGYQLGTAG [G18Y]	1.64
FSDSSMDHFQKFLPTVGFQLGTAG [G18F]	1.51
FSDSSMDHFQKFLPTVGHQLGTAG [G18H]	2.04
FSDSSMDHFQKFLPTVGQQLGTAG [G18Q]	2.63
FSDSSMDHFQKFLPTVGRQLGTAG [G18R]	2.79
FSDSSMDHFQKFLPTVGVQLGTAG [G18V]	1.94
FSDSSMDHFQKFLPTVGMQLGTAG [G18M]	2.49
FSDSSMDHFQKFLPTVGEQLGTAG [G18E]	3.48
FSDSSMDHFQKFLPTVGDQLGTAG [G18D]	3.05
FSDSSMDHFQKFLPTVGAQLGTAG [G18A]	1.92
FSDSSMDHFQKFLPTVGNQLGTAG [G18N]	2.67
FSDSSMDHFQKFLPTVGKQLGTAG [G18K]	2
FSDSSMDHFQKFLPTVGWQLGTAG [G18W]	1.85
FSDSSMDHFQKFLPTVGPQLGTAG [G18P]	2.43
FSDSSMDHFQKFLPTVGIQLGTAG [G18I]	1.52
FSDSSMDHFQKFLPTVGLQLGTAG [G18L]	2.3
FSDSSMDHFQKFLPTVGGQLETAG [G21E]	2.35
FSDSSMDHFQKFLPTVGGQLTTAG [G21T]	2.13
FSDSSMDHFQKFLPTVGGQLATAG [G21A]	1.87
FSDSSMDHFQKFLPTVGGQLDTAG [G21D]	2.81

Variant	protein stability index
FSDSSMDHFQKFLPTVGGQLHTAG [G21H]	2.14
FSDSSMDHFQKFLPTVGGQLITAG [G21I]	1.76
FSDSSMDHFQKFLPTVGGQLYTAG [G21Y]	1.59
FSDSSMDHFQKFLPTVGGQLFTAG [G21F]	1.62
FSDSSMDHFQKFLPTVGGQLKTAG [G21K]	2.32
FSDSSMDHFQKFLPTVGGQLRTAG [G21R]	2.25
FSDSSMDHFQKFLPTVGGQLNTAG [G21N]	2.98
FSDSSMDHFQKFLPTVGGQLVTAG [G21V]	1.75
FSDSSMDHFQKFLPTVGGQLMTAG [G21M]	2.28
FSDSSMDHFQKFLPTVGGQLQTAG [G21Q]	2.04
FSDSSMDHFQKFLPTVGGQLLTAG [G21L]	2.71
FSDSSMDHFQKFLPTVGGQLSTAG [G21S]	1.69
FSDSSMDHFQKFLPTVGGQLPTAG [G21P]	2.54
FSDSSMDHFQKFLPTVGGQLCTAG [G21C]	1.61
FSDSSMDHFQKFLPTVGGQLWTAG [G21W]	1.76
FSDSSMDHFQKFLPAVGGQLGTAG [T15A]	2.64
FSDSSMDHFQKFLPDVGGQLGTAG [T15D]	2.61
FSDSSMDHFQKFLPCVGGQLGTAG [T15C]	2.33
FSDSSMDHFQKFLPLVGGQLGTAG [T15L]	1.9
FSDSSMDHFQKFLPQVGGQLGTAG [T15Q]	2.94
FSDSSMDHFQKFLPNVGGQLGTAG [T15N]	1.7
FSDSSMDHFQKFLPIVGGQLGTAG [T15I]	2.43
